From patent publication US9579358B2, “Compositions for binding to amyloid proteins” (LANCASTER UNIVERSITY BUSINESS ENTERPRISES LIMITED, priority 2011, dated 2017)
Where two headings read alike, the source gives them in different places. One block for each compound: values may come before it. Non-standard residues stand in square brackets, D forms with d. Residues, ends and D or L forms follow the SMILES beside them. No end group written: not given here.

Assays:
Aβ42 fibrils = biological target: T1, Aβ42 fibrils (Homo sapiens, UniProt P05067); assay: Surface plasmon resonance binding to immobilized Aβ42 fibrils
T1 construct: purchased rPeptide, Bogart, Ga., USA
From the text: SPR (Surface Plasmon Resonance) is a technique that can be used to measure the affinity of a substance for a substrate. The substrate (in this case Aβ fibrils) is bound to a solid surface and excited using a laser light source. The compound to be tested (e.g. PINPs) is allowed to flow over the bound substrate in suspension/solution and the emission spectra of the substrate will change if the compound binds. A second solution, without the test compound, can then added to elute any bound compound and the emission spectra may be observed to note loss of bound compound from the substrate. For a specific example regarding peptide binding to Aβ see reference (30).
In the examples presented here, The substance is introduced at a flow rate of 30 uL/min for 5 minute over the immobilized substrate. There is a spike in the signal which is due to the introduction of solvent without PINPs to show removal of the peptide bound to the Aβ fibrils. There are two plots related to addition of peptide at two different concentrations, 1 and 3 μM, plus a computer generated fitted curve for each one.
These experiments were conducted using a Sensi Q semi-automatic SPR machine (ICx Nomadics). This apparatus has two parallel flow cells; one was used to immobilize Aβ42 fibrils while the other was used as “reference” (empty surface). A COOH5 sensor chip (ICx Nomadics) was employed for this purpose and the peptide was immobilized by amine coupling chemistry. Briefly, after surface activation, the peptide preparation was diluted to 10 μM in acetate buffer (pH 4.0) and then injected for 5 min at a flow rate of 30 μL/min. Any remaining activated groups were blocked with ethanolamine (pH 8.0). The final immobilization level was ˜5,000 resonance units (1 RU=1 pg of protein/mm^2). The empty “reference” surface was prepared in parallel using the same immobilization procedure, but without addition of the peptide. Sensorgrams were then obtained via injection of three different concentrations of RI-OR2-TAT (1, 3 and 6 μM), as well as the vehicle (PBS with 0.005% Tween 20), over the immobilized ligand or control surface, in parallel.
These experiments were conducted using a Sensi Q semi-automatic SPR machine (ICx Nomadics). This apparatus has two parallel flow cells; one was used to immobilize Aβ(1-42) fibrils (see Aβ peptides) while the other was used as “reference” (empty surface). A COOH5 sensor chip (ICx Nomadics) was employed for this purpose and the peptide was immobilized by amine coupling chemistry. Briefly, after surface activation, the peptide preparations was diluted to 10 μM in acetate buffer (pH 4.0) and then injected for 5 min at a flow rate of 30 μL/min. Any remaining activated groups were blocked with ethanolamine (pH 8.0). The final immobilization level was 5000 resonance units (1 RU=1 pg of protein/mm^2). The empty “reference” surface was prepared in parallel using the same immobilization procedure, but without addition of the peptide. Sensorgrams were then obtained via injection of two different concentrations of RI-OR2 TAT/peptide liposome (1 and 3 μM), as well as the vehicle (PBS with 0.005% Tween 20), over the immobilized ligand or control surface, in parallel, at the same time.

Aβ42 [1] = biological target: T2, Aβ42 (Homo sapiens, UniProt P05067); assay: Thioflavin T (ThT) assay for Aβ fibrils; assay type: biochemical; settings: for % of control: Aβ alone = 100
T2 construct: Recombinant Aβ42, Ultrapure, was purchased from rPeptide, Bogart, Ga., USA; purchased rPeptide, Bogart, Ga., USA
Protocol: This method was the same as that published previously. Briefly, 60 μl samples of solutions containing Aβ42 (25 μM), ThT (15 μM) and between 0 and 125 μM RI-OR2 or RI-OR2-TAT, in 10 mM phosphate buffered saline (PBS), pH 7.4, were incubated in sealed, black, clear-bottomed 384-well plates (Corning). ThT fluorescence was monitored every 10 mins (λex=442 nm, λem=483 nm) for 48 h at 30° C. in a Biotek Synergy 2 plate reader.

Aβ42 [2] = biological target: T2, Aβ42; assay: Atomic force microscopy of incubated Aβ42; assay type: biochemical; settings: 1:2 molar ratio RI-OR2-TAT:Aβ42; Aβ42 25 μM, 24 h
Protocol: Aβ42 was incubated at 25 μM in the presence or absence of 12.5 μM RI-OR2-TAT in PBS, pH 7.4, for 24 h. Samples were diluted 1:10 in PBS and then a 2 μl aliquot was deposited onto the surface of freshly cleaned mica and allowed to dry.
Images were obtained in tapping mode using a Multimode™ SPM NanoScope IIIa microscope (Digital Instruments, New York, USA). Silicon cantilever tips measuring 125 μm long, 30 μm wide and with a tip radius <10 nm were used (Budget Sensors, Bulgaria). The resonance frequency was 300 kHz and force constants 40 Nm. All images were first order flattened and edited using WSxM 5.0 Develop 4.3 software, (Nanotech, Madrid, Spain).

[3] = read-out: Kd, binding to Aβ fibrils

T2 sequence (P05067 672-713 limits assumed): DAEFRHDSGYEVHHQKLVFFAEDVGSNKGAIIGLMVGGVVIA
T1 sequence (P05067 672-713 limits assumed): as above

increase in affinity of binding to Aβ fibrils compared to RI-OR2 (Aβ42 fibrils): approximately 1000 fold
koff (Aβ42 fibrils; Example 2, 1, 3 and 6 μM): 0.00037 ± 1.5e-08 s⁻¹
kon (Aβ42 fibrils; Example 2, 1, 3 and 6 μM): 3680 ± 615 M⁻¹ s⁻¹
Kd (Aβ42 fibrils; Example 2, Langmuir 1:1 interaction model, read-out: calculated apparent affinity value (Kd)): 58 to 125 nM
binding affinity for Aβ42 fibrils relative to RI-OR2 (Aβ42 fibrils; Example 2, versus Kd=9.5 μM): ~100 fold
binding affinity relative to peptide without TAT (Aβ42 fibrils; Example 7): approximately 1000 times
Kd (Aβ42 fibrils; Example 7, 1 and 3 μM, read-out: Kd, binding to Aβ fibrils): 15 to 75 nM
Kd (Aβ42 fibrils; [3]): 41 to 75 nM
ThT fluorescence (Aβ42 [1]; 48 h incubation of Aβ42, molar ratios 1:1, 1:2, 1:4 and 1:10 (inhibitor:Aβ42)): lower fluorescence
oligomer formation in AFM images (Aβ42 [2]): clear inhibition of oligomer formation
Compound: CC(=O)N[C@H](CCCNC(=N)N)C(=O)NCC(=O)N[C@H](Cc1ccccc1)C(=O)N[C@H](Cc1ccccc1)C(=O)N[C@@H](C(=O)N[C@H](CC(C)C)C(=O)N[C@H](CCCCN)C(=O)NCC(=O)N[C@H](CCCNC(=N)N)C(=O)N[C@H](CCCNC(=N)N)C(=O)N[C@H](CCCNC(=N)N)C(=O)N[C@H](CCCNC(=N)N)C(=O)N[C@H](CCC(N)=O)C(=O)N[C@H](CCCNC(=N)N)C(=O)N[C@H](CCCNC(=N)N)C(=O)N[C@H](CCCCN)C(=O)N[C@H](CCCCN)C(=O)N[C@H](CCCNC(=N)N)C(=O)NCC(=O)N[C@H](Cc1ccc(O)cc1)C(N)=O)C(C)C [RI-OR2-TAT, Ac-rGffvlkGrrrrqrrkkrGy-NH2] (Ac-[dR]G[dF][dF][dV][dL][dK]G[dR][dR][dR][dR][dQ][dR][dR][dK][dK][dR]G[dY]-NH2)

Compound: PINPs: RI-OR2-TAT covalently attached to nanoliposomes (cholesterol:sphingomyelin [1:1] with 2.5% maleimide) via an additional cysteine (Ac-[dR]G[dF][dF][dV][dL][dK]G[dR][dR][dR][dR][dQ][dR][dR][dK][dK][dR]G[dY][dC]; not fully specified (residue 21); also: C-terminal D-Cys coupled via its thiol to maleimide lipid of nanoliposome)
Kd (Aβ42 fibrils; [3]): 14 to 44 nM
reduction in aggregate formation (Aβ42 [1]; 1:50 molar ratio of PINPS:Aβ, 48 hours, Aβ1-42 25 μM): ~50%
ThT signal by 48 hours (Aβ42 [1]; 1:500 molar ratio of PINPs (total lipids):Aβ): below that of Aβ1-42 alone
RFU at 48 hours (Aβ42 [1]; 1 to 1 PINPS (total lipids):Aβ, Aβ1-42 25 μM): 13817 RFU
% of control (Aβ42 [1]; 1 to 1 PINPS:Aβ, 48 hours): 7.1%
RFU at 48 hours (Aβ42 [1]; 1 to 5 PINPS (total lipids):Aβ, Aβ1-42 25 μM): 14450 RFU
% of control (Aβ42 [1]; 1 to 5 PINPS:Aβ, 48 hours): 7.4%
RFU at 48 hours (Aβ42 [1]; 1 to 10 PINPS (total lipids):Aβ, Aβ1-42 25 μM): 15664 RFU
% of control (Aβ42 [1]; 1 to 10 PINPS:Aβ, 48 hours): 8.1%
RFU at 48 hours (Aβ42 [1]; 1 to 50 PINPS (total lipids):Aβ, Aβ1-42 25 μM): 85107 RFU
% of control (Aβ42 [1]; 1 to 50 PINPS:Aβ, 48 hours): 44.0%
RFU at 48 hours (Aβ42 [1]; 1 to 100 PINPS (total lipids):Aβ, Aβ1-42 25 μM): 132977 RFU
% of control (Aβ42 [1]; 1 to 100 PINPS:Aβ, 48 hours): 68.8%
RFU at 48 hours (Aβ42 [1]; 1 to 500 PINPS (total lipids):Aβ, Aβ1-42 25 μM): 165060 RFU
% of control (Aβ42 [1]; 1 to 500 PINPS:Aβ, 48 hours): 85.5%
RFU at 48 hours (Aβ42 [1]; 1 to 1000 PINPS (total lipids):Aβ, Aβ1-42 25 μM): 171555 RFU
% of control (Aβ42 [1]; 1 to 1000 PINPS:Aβ, 48 hours): 88.8%
RFU at 48 hours (Aβ42 [1]; 1 to 5000 PINPS (total lipids):Aβ, Aβ1-42 25 μM): 148012 RFU
% of control (Aβ42 [1]; 1 to 5000 PINPS:Aβ, 48 hours): 76.6%
RFU at 48 hours (Aβ42 [1]; 1 to 10000 PINPS (total lipids):Aβ, Aβ1-42 25 μM): 204059 RFU
% of control (Aβ42 [1]; 1 to 10000 PINPS:Aβ, 48 hours): 105%
RFU at 48 hours (Aβ42 [1]; 1 to 50000 PINPS (total lipids):Aβ, Aβ1-42 25 μM): 199514 RFU
% of control (Aβ42 [1]; 1 to 50000 PINPS:Aβ, 48 hours): 103%
RFU at 48 hours (Aβ42 [1]; 1 to 100000 PINPS (total lipids):Aβ, Aβ1-42 25 μM): 188616 RFU
% of control (Aβ42 [1]; 1 to 100000 PINPS:Aβ, 48 hours): 97.0%
